In the supplement of paper PMC10567573:

B1: MLL5 (parent)
chain: TYLCERCQPRNLDKERAVLLQRRK

Variants of: B1
Experiment: protein stability index of a GFP-peptide fusion (GPS, HEK-293T) (PSI 1-6); higher = more stable
Conditions: c terminus: a fixed tail appended
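Note: lentivirally expressed fusions sorted by FACS into six bins by GFP to DsRed ratio, PSI derived from sequencing read proportions per bin multiplied by bin number.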

Variant	protein stability index
TYLCERCQPRNLDMERAVLLQRRK [K14M]	3.36
TYLCERCQPRNLDNERAVLLQRRK [K14N]	2.29
TYLCERCQPRNLDRERAVLLQRRK [K14R]	2.19
TYLCERCQPRNLDAERAVLLQRRK [K14A]	2.29
TYLCERCQPRNLDSERAVLLQRRK [K14S]	2.51
TYLCERCQPRNLDVERAVLLQRRK [K14V]	3.34
TYLCERCQPRNLDFERAVLLQRRK [K14F]	2.34
TYLCERCQPRNLDIERAVLLQRRK [K14I]	1.87
TYLCERCQPRNLDDERAVLLQRRK [K14D]	1.98
TYLCERCQPRNLDCERAVLLQRRK [K14C]	1.93
TYLCERCQPRNLDKERQVLLQRRK [A17Q]	1.88
TYLCERCQPRNLDKERLVLLQRRK [A17L]	1.45
TYLCERCQPRNLDKERYVLLQRRK [A17Y]	2.18
TYLCERCQPRNLDKERHVLLQRRK [A17H]	2
TYLCERCQPRNLDKERSVLLQRRK [A17S]	2.32
TYLCERCQPRNLDKERMVLLQRRK [A17M]	2.58
TYLCERCQPRNLDKERVVLLQRRK [A17V]	2.42
TYLCERCQPRNLDKERWVLLQRRK [A17W]	2.16
TYLHERCQPRNLDKERAVLLQRRK [C4H]	3.36
TYLDERCQPRNLDKERAVLLQRRK [C4D]	4.22
TYLFERCQPRNLDKERAVLLQRRK [C4F]	2.61
TYLMERCQPRNLDKERAVLLQRRK [C4M]	3.52
TYLEERCQPRNLDKERAVLLQRRK [C4E]	4.31
TYLRERCQPRNLDKERAVLLQRRK [C4R]	3.67

Variant	protein stability index
TYLIERCQPRNLDKERAVLLQRRK [C4I]	1.54
TYLCERCQPRNLDKERAVLAQRRK [L20A]	2.37
TYLCERCQPRNLDKERAVLEQRRK [L20E]	2.7
TYLCERCQPRNLDKERAVLYQRRK [L20Y]	1.76
TYLCERCQPRNLDKERAVLNQRRK [L20N]	2.68
TYLCERCQPRNLDKERAVLGQRRK [L20G]	2.52
TYLCERCQPRNLDKERAVLHQRRK [L20H]	2.23
TYLCSRCQPRNLDKERAVLLQRRK [E5S]	2.23
TYLCVRCQPRNLDKERAVLLQRRK [E5V]	3.05
TYLCLRCQPRNLDKERAVLLQRRK [E5L]	1.73
TYLCKRCQPRNLDKERAVLLQRRK [E5K]	1.79
TYLCWRCQPRNLDKERAVLLQRRK [E5W]	2.4
TYLCARCQPRNLDKERAVLLQRRK [E5A]	1.91
TYLCERCYPRNLDKERAVLLQRRK [Q8Y]	1.5
TYLCERCLPRNLDKERAVLLQRRK [Q8L]	1.93
TYLCERCNPRNLDKERAVLLQRRK [Q8N]	1.55
TYLCERCKPRNLDKERAVLLQRRK [Q8K]	2.05
TYLCERCAPRNLDKERAVLLQRRK [Q8A]	2.74
TYLCERCCPRNLDKERAVLLQRRK [Q8C]	1.38
TYLCERCVPRNLDKERAVLLQRRK [Q8V]	1.9
TYLCERCIPRNLDKERAVLLQRRK [Q8I]	1.79
TYLCERCQPGNLDKERAVLLQRRK [R10G]	3.56
TYLCERCQPMNLDKERAVLLQRRK [R10M]	2.25
TYLCERCQPNNLDKERAVLLQRRK [R10N]	2.84

Variant	protein stability index
TYLCERCQPINLDKERAVLLQRRK [R10I]	2.25
TYLCERCQPENLDKERAVLLQRRK [R10E]	1.99
TYLCERCQPSNLDKERAVLLQRRK [R10S]	2.44
TYLCERCQPCNLDKERAVLLQRRK [R10C]	2.54
TYLCERCQPVNLDKERAVLLQRRK [R10V]	2.17
TYLCERCQPANLDKERAVLLQRRK [R10A]	2.28
TYLCERCQPYNLDKERAVLLQRRK [R10Y]	2.04
TYLCERCQPTNLDKERAVLLQRRK [R10T]	2.29
TYLCERCQPQNLDKERAVLLQRRK [R10Q]	2.48
TELCERCQPRNLDKERAVLLQRRK [Y2E]	2.4
TMLCERCQPRNLDKERAVLLQRRK [Y2M]	2.53
TDLCERCQPRNLDKERAVLLQRRK [Y2D]	2.78
THLCERCQPRNLDKERAVLLQRRK [Y2H]	2.58
TPLCERCQPRNLDKERAVLLQRRK [Y2P]	3.19
TNLCERCQPRNLDKERAVLLQRRK [Y2N]	2.43
TKLCERCQPRNLDKERAVLLQRRK [Y2K]	3.44
TLLCERCQPRNLDKERAVLLQRRK [Y2L]	2.78
TVLCERCQPRNLDKERAVLLQRRK [Y2V]	2.16
TWLCERCQPRNLDKERAVLLQRRK [Y2W]	2.76
TQLCERCQPRNLDKERAVLLQRRK [Y2Q]	3.53
TYLCERGQPRNLDKERAVLLQRRK [C7G]	3.59
TYLCERWQPRNLDKERAVLLQRRK [C7W]	3.6
TYLCERTQPRNLDKERAVLLQRRK [C7T]	4.37
TYLCEREQPRNLDKERAVLLQRRK [C7E]	4.89

Variant	protein stability index
TYLCERHQPRNLDKERAVLLQRRK [C7H]	3.12
TYLCERQQPRNLDKERAVLLQRRK [C7Q]	3.65
TYLCERMQPRNLDKERAVLLQRRK [C7M]	3.2
TYLCERKQPRNLDKERAVLLQRRK [C7K]	3.34
TYLCERCQPRNLDKERAVLLQRHK [R23H]	2.05
TYLCERCQPRNLDKERAVLLQRYK [R23Y]	1.48
TYLCERCQPRNLDKERAVLLQRCK [R23C]	2.31
TYLCERCQPRNLDKERAVLLQRMK [R23M]	2.16
TYLCERCQPRNLDKERAVLLQRGK [R23G]	2.1
TYLCERCQPRNLDKERAVLLQRFK [R23F]	2.03
TYLCERCQPRNLDKERAVLLQREK [R23E]	1.72
TYLCERCQPRNLDKERAVLLQRLK [R23L]	1.47
TYLCERCQPRNLDKERAVLLQRSK [R23S]	2.35
TYLCERCQPRNLDKERAVLLQRDK [R23D]	1.76
TYLCERCQPRNIDKERAVLLQRRK [L12I]	2.17
TYLCERCQPRNNDKERAVLLQRRK [L12N]	2.25
TYLCERCQPRNEDKERAVLLQRRK [L12E]	3.2
TYLCERCQPRNWDKERAVLLQRRK [L12W]	1.61
TYLCERCQPRNRDKERAVLLQRRK [L12R]	2.02
TYLCERCQPRNYDKERAVLLQRRK [L12Y]	1.71
TYLCERCQPRNADKERAVLLQRRK [L12A]	2.56
TYLCERCQPRNDDKERAVLLQRRK [L12D]	2.01
